Data taken from US20220362145A1, “THERAPEUTIC HYDROGEL COMPOSITIONS” (THE UNIVERSITY OF BIRMINGHAM, priority 2018, published 2022).

B1: Proteinase K: extracellular matrix remodelling agent proteinase K (protein, UniProt P06873 106-384, looked up)
Proteinase K: AAQTNAPWGLARISSTSPGTSTYYYDESAGQGSCVYVIDTGIEASHPEFEGRAQMVKTYYYSSRDGNGHGTHCAGTVGSRTYGVAKKTQLFGVKVLDDNGSGQYSTIIAGMDFVASDKNNRNCPKGVVASLSLGGGYSSSVNSAAARLQSSGVMVAVAAGNNNADARNYSPASEPSVCTVGASDRYDRRSSFSNYGSVLDIFGPGTSILSTWIGGSTRSISGTSMATPHVAGLAAYLMTLGKTTAASACRYIADTANKGDLSNIPFGTVNLLAYNNYQA
B2: hrDecorin: human recombinant decorin sold by Catalent Pharma Solutions under the name Galacorin™ (protein, UniProt P07585 31-359, looked up)
Decorin: DEASGIGPEVPDDRDFEPSLGPVCPFRCQCHLRVVQCSDLGLDKVPKDLPPDTTLLDLQNNKITEIKDGDFKNLKNLHALILVNNKISKVSPGAFTPLVKLERLYLSKNQLKELPEKMPKTLQELRAHENEITKVRKVTFNGLNQMIVIELGTNPLKSSGIENGAFQGMKKLSYIRIADTNITSIPQGLPPSLTELHLDGNKISRVDAASLKGLNNLAKLGLSFNSISAVDNGSLANTPHLRELHLDNNKLTRVPGGLAEHKYIQVVYLHNNNISVVGSSDFCPPGHNTKKASYSGVSLFSNPVQYWEIQPSTFRCVYVRSAIQLGNYK

Key:
fibrin gel = assay: Matrix breakdown assay (fibrin gel); assay type: biochemical; settings: trans-well above fibrin gel (8.5 mg/ml), 60° C.
Method: […] • Add 0.9 ml of gel to an Eppendorf. • To each gel add 0.1 ml of active in PBS. • Mix well using a vortex mixer. • Refrigerate for 24 hours before testing. • 0.5 ml of fibrin gel (8.5 mg/ml) was formed in the wells of a 24 well plate. • 0.5 ml of PBS was added to each well. • 0.1 ml of gel with active was added to a trans-well insert and placed above the fibrin gel. • Samples were incubated at 60° C. to activate the proteinase K. • Images were taken at various timepoints and compared to the control fibrin gel (pbs only) and fibrin gel with proteinase k added without a fluid gel carrier.

[1] = molecular target: T1, collagen type I (rat tail) (Rattus norvegicus, UniProt P02454+P02466); assay: Collagen fibrillogenesis turbidity assay; assay type: biochemical
T1 construct: collagen type I (rat tail; Corning, UK); purchased Corning, UK; host or cells: rat tail (tissue-derived)
T1 sequence (P02454 152-1207 limits assumed): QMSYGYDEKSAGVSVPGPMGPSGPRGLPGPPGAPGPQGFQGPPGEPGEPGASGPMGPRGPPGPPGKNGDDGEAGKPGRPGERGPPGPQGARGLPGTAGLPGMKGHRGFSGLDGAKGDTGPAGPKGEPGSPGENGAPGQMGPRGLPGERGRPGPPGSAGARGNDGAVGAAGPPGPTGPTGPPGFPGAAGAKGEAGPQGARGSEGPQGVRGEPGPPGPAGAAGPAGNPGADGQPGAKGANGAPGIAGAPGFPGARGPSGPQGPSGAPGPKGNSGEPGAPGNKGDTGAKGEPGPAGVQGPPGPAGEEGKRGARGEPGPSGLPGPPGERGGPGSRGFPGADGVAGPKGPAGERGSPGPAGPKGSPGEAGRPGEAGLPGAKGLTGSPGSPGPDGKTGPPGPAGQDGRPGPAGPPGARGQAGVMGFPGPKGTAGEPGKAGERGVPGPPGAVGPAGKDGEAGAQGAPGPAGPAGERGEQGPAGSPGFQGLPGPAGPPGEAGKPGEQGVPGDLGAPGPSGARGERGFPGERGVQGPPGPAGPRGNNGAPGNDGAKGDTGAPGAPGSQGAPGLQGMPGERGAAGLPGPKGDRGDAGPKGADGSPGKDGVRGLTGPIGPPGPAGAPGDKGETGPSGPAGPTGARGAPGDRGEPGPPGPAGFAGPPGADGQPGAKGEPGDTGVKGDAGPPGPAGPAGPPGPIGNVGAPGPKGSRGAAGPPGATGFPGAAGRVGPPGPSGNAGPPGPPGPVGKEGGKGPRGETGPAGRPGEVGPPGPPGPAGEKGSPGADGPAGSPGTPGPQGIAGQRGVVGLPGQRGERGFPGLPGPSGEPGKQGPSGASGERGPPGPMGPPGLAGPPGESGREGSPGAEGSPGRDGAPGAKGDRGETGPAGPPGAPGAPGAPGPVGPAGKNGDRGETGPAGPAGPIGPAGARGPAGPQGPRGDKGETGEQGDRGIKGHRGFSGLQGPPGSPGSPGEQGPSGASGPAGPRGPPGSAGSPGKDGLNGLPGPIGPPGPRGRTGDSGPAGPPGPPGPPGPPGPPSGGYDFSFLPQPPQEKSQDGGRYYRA
T1 sequence (P02466 86-1125 limits assumed): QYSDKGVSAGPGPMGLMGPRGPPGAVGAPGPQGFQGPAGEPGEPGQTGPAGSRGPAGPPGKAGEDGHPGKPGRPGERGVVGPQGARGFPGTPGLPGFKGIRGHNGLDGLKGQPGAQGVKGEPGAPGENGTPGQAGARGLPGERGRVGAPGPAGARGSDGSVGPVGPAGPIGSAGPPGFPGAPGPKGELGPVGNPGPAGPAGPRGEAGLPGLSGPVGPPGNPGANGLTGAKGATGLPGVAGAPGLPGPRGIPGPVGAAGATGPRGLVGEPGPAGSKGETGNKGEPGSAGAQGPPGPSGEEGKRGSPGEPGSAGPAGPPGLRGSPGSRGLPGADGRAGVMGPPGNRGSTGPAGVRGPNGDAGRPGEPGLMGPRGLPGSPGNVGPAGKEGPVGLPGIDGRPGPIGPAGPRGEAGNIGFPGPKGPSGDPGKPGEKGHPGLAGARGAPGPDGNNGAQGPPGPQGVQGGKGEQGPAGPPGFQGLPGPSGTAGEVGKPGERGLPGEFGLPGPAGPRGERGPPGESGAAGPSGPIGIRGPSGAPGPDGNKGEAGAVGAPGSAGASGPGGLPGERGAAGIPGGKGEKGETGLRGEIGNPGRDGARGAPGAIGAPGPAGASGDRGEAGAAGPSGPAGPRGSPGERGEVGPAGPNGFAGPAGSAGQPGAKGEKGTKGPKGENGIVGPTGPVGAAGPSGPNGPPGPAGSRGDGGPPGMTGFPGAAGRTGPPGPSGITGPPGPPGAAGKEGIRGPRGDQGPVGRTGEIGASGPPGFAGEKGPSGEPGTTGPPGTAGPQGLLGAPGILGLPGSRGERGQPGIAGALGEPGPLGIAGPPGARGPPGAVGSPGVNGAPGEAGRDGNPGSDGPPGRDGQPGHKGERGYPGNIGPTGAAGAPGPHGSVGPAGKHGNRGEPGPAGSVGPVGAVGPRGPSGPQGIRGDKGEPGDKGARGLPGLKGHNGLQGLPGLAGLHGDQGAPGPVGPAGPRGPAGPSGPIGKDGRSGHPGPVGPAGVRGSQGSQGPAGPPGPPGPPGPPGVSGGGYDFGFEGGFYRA
Method: Collagen fibrillogenesis: For the dose response curves, 75 µl of PBS was added to each well of a 96 well plate kept on ice. Varying hrDecorin doses were prepared by adding 400 μg/ml of hrDecorin to the first well and subsequently serial diluting (2-fold dilution) across the plate. Following dilution, a further 150 μl of PBS buffer was added to each well. Then, 75 μl of collagen type I (rat tail; Corning, UK) (800 μg/ml) was added to each well and incubated for 2 hours at 37° C. Subsequent absorbance readings were taken using a 405 nm plate reader. Each assay consisted of duplicate blank controls, and triplicate standard dilutions followed by triplicate sample dilutions. Kinetics of fibril formation were determined using a similar setup as the dose response, without serial dilution; incubating the samples within the plate reader, and taking data points every 2 minutes.
• Prepare diluent and reaction buffers by mixing sodium phosphate and sodium chloride and adjusting the pH to 7.4. • Add sample (Gellan fluid gel +Galacorin™ Galacorin only and Gellan only) to a 96 well plate and serial dilute using diluent buffer across the rows of the plate. • On ice, prepare collagen by mixing with cold water to a concentration of 0.8 mg/ml. • Add collagen to all wells. • Add reaction buffer to all wells and mix. • Incubate at 37° C. for 2 hours. • Read using a plate reader at 405 nm

| Molecule | breakdown of fibrin gel (fibrin gel) | effect on collagen fibrillogenesis (fibril formation) ([1]; turbidity at 405 nm vs collagen only control) | critical concentration above which fibrillogenesis is inhibited ([1]; turbidity at 405 nm, 2 hours at 37° C.) | concentration at which minimum turbidity is achieved ([1]; turbidity at 405 nm, no further reduction above) |
| --- | --- | --- | --- | --- |
| B1 | faster |  |  |  |
| B2 |  | slowing the onset of fibrillogenesis | 0.5 μg/ml | > 10000 ng/mL |
